# Target: T1, interaction between AKAP18δ and RIIα (Homo sapiens, UniProt P13861)
# T1 construct: expressed in transfected cells; host or cells: HEK293
# Assay: FRET measurement of AKAP18δ-CFP / RIIα-YFP interaction in co-transfected HEK293 cells
# Type: cell-based
# Details: 100 μM
# Protocol: The interaction of the expressed fusion proteins AKAP18δ-CFP and RIIα-YFP was measured in the HEK293 cells using the fluorescence resonance energy transfer (FRET) technology (schematic diagram in FIG. 3). The FRET signals result from an energy transfer from CFP to YFP, which is only possible when the two proteins are in close proximity to each other (<10 nm). Such close proximity of CFP and YFP is achieved only when AKAP186 directly binds the RIIα subunit. In this event, a FRET can be detected. […] A continuous decrease of the FRET signal during measurement indicates inhibition of the interaction between AKAP18δ and RIIα.
# HEK293 cells (GBF, Brunswick) were cultured on polylysine-coated 30 mm cover glasses with 10% fetal calf serum (FCS) in Dulbecco's Minimal Eagle medium (DMEM) until a confluence of 40-60% was reached. […]
# HEK293 cells were transiently co-transfected with the plasmids encoding RIIα-YFP and AKAP18δ-CFP. […] Fluorescence was excited at a wavelength of 425 nm for CFP and 488 nm for YFP. The emitted fluorescence was measured at a wavelength of 480/30 nm for CFP and 535/26 nm for YFP. The FRET of CFP to YFP was determined by excitation of CFP at a wavelength of 425 nm and measurement of the emission of YFP at a wavelength of 535/26 nm. Non-specific background fluorescence was determined in a region with no cells and subtracted. […]
# T1 sequence (P13861 whole entry): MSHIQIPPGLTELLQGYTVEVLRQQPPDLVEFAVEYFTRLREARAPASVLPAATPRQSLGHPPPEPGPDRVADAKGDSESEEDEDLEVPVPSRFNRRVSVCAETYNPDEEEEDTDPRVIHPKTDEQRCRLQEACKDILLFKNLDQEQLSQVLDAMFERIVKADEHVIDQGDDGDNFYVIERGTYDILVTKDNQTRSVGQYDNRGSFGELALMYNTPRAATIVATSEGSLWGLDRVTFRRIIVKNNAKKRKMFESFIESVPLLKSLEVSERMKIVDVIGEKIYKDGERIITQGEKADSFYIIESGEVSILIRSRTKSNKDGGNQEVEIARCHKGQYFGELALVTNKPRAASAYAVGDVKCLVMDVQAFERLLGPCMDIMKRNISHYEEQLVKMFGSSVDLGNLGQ
substance,measurement,setting,value
"S-Ht31: membrane-permeable peptide; sequence of the RII binding domain of AKAP Ht31, coupled to a stearate residue on the N terminus",mean value of the 535/480 ratio after addition of peptide,"HEK293 cells, ratio >0.6 taken as positive FRET signal",about 0.35
same,decrease of the 535/480 nm ratio (FRET signal),"within 80 min, HEK293 cells co-expressing AKAP18δ-CFP and RIIα-YFP, ratio before addition about 1.3",more than 50%
